Common to all, as to details: protein: recombinant;recombinant; tags: ;N-terminal His; copies: 1;1; label: 5'-32P on forward (C-rich) strand; blunt
Series [1] deals with T1, GABPA (GABP alpha);GABPB (GABP beta1L) (human?;human?, UniProt Q06546;Q06547 1-454;1-395, |). The series can be described thus: DNase I footprinting; 5 uM GABP; bound via native site, not at the unmutated proto-sites; 20 mM Tris-Cl pH 7.5, 5% glycerol, 5.2 mM MgCl2, 50 mM KCl, 1 mM TCEP, 20 nM oligo, 1 h room temperature; EMSA on 4% native PAGE, 0.5x TBE, 4 C.
Series [2] deals with T1, GABPA (GABP alpha);GABPB (GABP beta1L). The series can be described thus: DNase I footprinting; 5 uM GABP; -146 de novo site and native site; 20 mM Tris-Cl pH 7.5, 5% glycerol, 5.2 mM MgCl2, 50 mM KCl, 1 mM TCEP, 20 nM oligo, 1 h room temperature; EMSA on 4% native PAGE, 0.5x TBE, 4 C.
Series [3] shares this target. The series can be described thus: DNase I footprinting; 5 uM GABP; -124 de novo site and native site; 20 mM Tris-Cl pH 7.5, 5% glycerol, 5.2 mM MgCl2, 50 mM KCl, 1 mM TCEP, 20 nM oligo, 1 h room temperature; EMSA on 4% native PAGE, 0.5x TBE, 4 C.

T1 sequence (Q06546 whole entry, chain 1 of 2): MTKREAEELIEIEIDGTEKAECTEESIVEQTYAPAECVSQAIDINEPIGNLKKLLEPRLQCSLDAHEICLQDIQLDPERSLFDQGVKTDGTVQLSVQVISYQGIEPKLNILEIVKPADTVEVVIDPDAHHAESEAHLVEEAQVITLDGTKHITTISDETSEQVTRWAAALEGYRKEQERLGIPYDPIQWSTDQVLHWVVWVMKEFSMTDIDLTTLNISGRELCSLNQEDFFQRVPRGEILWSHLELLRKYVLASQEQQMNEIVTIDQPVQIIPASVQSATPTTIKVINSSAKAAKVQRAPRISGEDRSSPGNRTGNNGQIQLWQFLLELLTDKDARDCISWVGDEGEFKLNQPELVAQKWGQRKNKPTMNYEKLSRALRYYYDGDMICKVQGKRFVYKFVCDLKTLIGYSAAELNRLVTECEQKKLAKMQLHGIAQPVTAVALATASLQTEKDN
T1 sequence (Q06547 whole entry, chain 2 of 2): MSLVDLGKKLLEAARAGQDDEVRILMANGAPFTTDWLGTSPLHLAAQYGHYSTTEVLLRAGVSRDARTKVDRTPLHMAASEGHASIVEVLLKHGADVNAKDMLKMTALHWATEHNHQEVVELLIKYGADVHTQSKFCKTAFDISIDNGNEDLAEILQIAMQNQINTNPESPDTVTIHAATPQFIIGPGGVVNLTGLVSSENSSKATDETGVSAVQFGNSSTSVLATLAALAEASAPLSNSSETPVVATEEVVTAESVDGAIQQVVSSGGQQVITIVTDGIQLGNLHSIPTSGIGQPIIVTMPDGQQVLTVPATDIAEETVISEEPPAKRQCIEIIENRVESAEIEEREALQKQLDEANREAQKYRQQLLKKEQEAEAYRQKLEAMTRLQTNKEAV

B1: TERTp WT 90 (dsDNA)
DNA 1: ACCCCGCCCCGTCCCGACCCCTCCCGGGTCCCCGGCCCAGCCCCCTCCGGGCCCTCCCAGCCCCTCCCCTTCCTTTCCGCGGCCCCGCCC
DNA 2: GGGCGGGGCCGCGGAAAGGAAGGGGAGGGGCTGGGAGGGCCCGGAGGGGGCTGGGCCGGGGACCCGGGAGGGGTCGGGACGGGGCGGGGT
For the molecule B1, in series [1], the binding result is listed as “binds”.

B2: TERTp -146 mutant 90 (C250T) (dsDNA)
DNA 1: ACCCCGCCCCGTCCCGACCCCTTCCGGGTCCCCGGCCCAGCCCCCTCCGGGCCCTCCCAGCCCCTCCCCTTCCTTTCCGCGGCCCCGCCC
DNA 2: GGGCGGGGCCGCGGAAAGGAAGGGGAGGGGCTGGGAGGGCCCGGAGGGGGCTGGGCCGGGGACCCGGAAGGGGTCGGGACGGGGCGGGGT
On to B2, for which the binding result in series [2] is given as “binds”.

B3: TERTp -124 mutant 90 (C228T) (dsDNA)
DNA 1: ACCCCGCCCCGTCCCGACCCCTCCCGGGTCCCCGGCCCAGCCCCTTCCGGGCCCTCCCAGCCCCTCCCCTTCCTTTCCGCGGCCCCGCCC
DNA 2: GGGCGGGGCCGCGGAAAGGAAGGGGAGGGGCTGGGAGGGCCCGGAAGGGGCTGGGCCGGGGACCCGGGAGGGGTCGGGACGGGGCGGGGT
On to B3, for which the binding result in series [3] was “binds”.

Source of the values: publication PMC11574208, “Mechanistic basis of atypical TERT promoter mutations”.
